Laboratory results published in publication PMC11208909.

Target: TOPBP1 (UniProt Q92547)
Assay: co-IP of FLAG-HTATSF1 with endogenous TOPBP1
Details: reference: wild type; sites S748

- binding against the reference: lost
Substance: HIV Tat-specific factor 1 (HTATSF1) (from UniProt O43719) S748A
